Tests used:
Experiment in all cases: COS cells on LFA-1 coated plastic
ICAM-1 S177/G = ICAM-1 S177/G (human, UniProt P05362)
ICAM-1 Q58/H = ICAM-1 Q58/H (human, UniProt P05362)
ICAM-1 Q62PM/API = ICAM-1 Q62PM/API (human, UniProt P05362)
ICAM-1 H152HGA/EEGS = ICAM-1 H152HGA/EEGS (human, UniProt P05362)
ICAM-1 Q1/E = ICAM-1 Q1/E (human, UniProt P05362)
ICAM-1 D71GQS/NGEL = ICAM-1 D71GQS/NGEL (human, UniProt P05362)
ICAM-1 T20CS/ACT = ICAM-1 T20CS/ACT (human, UniProt P05362)
ICAM-1 E34/A = ICAM-1 E34/A (human, UniProt P05362)
ICAM-1 Q73/H = ICAM-1 Q73/H (human, UniProt P05362)
ICAM-1 R166PQ/EPA = ICAM-1 R166PQ/EPA (human, UniProt P05362)
ICAM-1 E90/Q = ICAM-1 E90/Q (human, UniProt P05362)
ICAM-1 D213GL/HGV = ICAM-1 D213GL/HGV (human, UniProt P05362)
ICAM-1 R13G/EA = ICAM-1 R13G/EA (human, UniProt P05362)
ICAM-1 N175TSA/QTLG = ICAM-1 N175TSA/QTLG (human, UniProt P05362)
ICAM-1 N118/Q = ICAM-1 N118/Q (human, UniProt P05362)
ICAM-1 S5/T (human) = ICAM-1 S5/T (human) (UniProt P05362)
ICAM-1 K39KE/ERQ = ICAM-1 K39KE/ERQ (human, UniProt P05362)
ICAM-1 D60S/KL = ICAM-1 D60S/KL (human, UniProt P05362)
ICAM-1 Q73/T = ICAM-1 Q73/T (human, UniProt P05362)
ICAM-1 M64/I = ICAM-1 M64/I (human, UniProt P05362)
ICAM-1 N156/E = ICAM-1 N156/E (human, UniProt P05362)
ICAM-1 R13/E = ICAM-1 R13/E (human, UniProt P05362)
ICAM-1 Q1T/KA = ICAM-1 Q1T/KA (human, UniProt P05362)
ICAM-1 Y66/T = ICAM-1 Y66/T (human, UniProt P05362)
ICAM-1 K40/A = ICAM-1 K40/A (human, UniProt P05362)
ICAM-1 N103/K = ICAM-1 N103/K (human, UniProt P05362)
ICAM-1 K128/R = ICAM-1 K128/R (human, UniProt P05362)
ICAM-1 R149RD/EEG = ICAM-1 R149RD/EEG (human, UniProt P05362)
ICAM-1 K8/E = ICAM-1 K8/E (human, UniProt P05362)
ICAM-1 S24/A = ICAM-1 S24/A (human, UniProt P05362)
ICAM-1 L91/A = ICAM-1 L91/A (human, UniProt P05362)
ICAM-1 R49KV/EKL = ICAM-1 R49KV/EKL (human, UniProt P05362)
ICAM-1 D71/N = ICAM-1 D71/N (human, UniProt P05362)
ICAM-1 A189T/SI = ICAM-1 A189T/SI (human, UniProt P05362)
ICAM-1 Q27/L = ICAM-1 Q27/L (human, UniProt P05362)
ICAM-1 R13/K = ICAM-1 R13/K (human, UniProt P05362)
ICAM-1 K77T/ES = ICAM-1 K77T/ES (human, UniProt P05362)
ICAM-1 E127/R = ICAM-1 E127/R (human, UniProt P05362)
ICAM-1 Y52/FA = ICAM-1 Y52/FA (human, UniProt P05362)
ICAM-1 D60/Q = ICAM-1 D60/Q (human, UniProt P05362)
ICAM-1 E111GGA/KAGS = ICAM-1 E111GGA/KAGS (human, UniProt P05362)
ICAM-1 S74/A = ICAM-1 S74/A (human, UniProt P05362)
ICAM-1 N68/K = ICAM-1 N68/K (human, UniProt P05362)
ICAM-1 N56V/HM = ICAM-1 N56V/HM (human, UniProt P05362)
ICAM-1 S3/T = ICAM-1 S3/T (human, UniProt P05362)

purified LFA-1, bound to plastic (from UniProt P20701) (receptor)
LFA-1 Binding % (% of wild type) (ICAM-1 S177/G): 59 | LFA-1 Binding % (% of wild type) (ICAM-1 Q58/H): 109 | LFA-1 Binding % (% of wild type) (ICAM-1 Q62PM/API): 104 | LFA-1 Binding % (% of wild type) (ICAM-1 H152HGA/EEGS): 85 | LFA-1 Binding % (% of wild type) (ICAM-1 Q1/E): 175 | LFA-1 Binding % (% of wild type) (ICAM-1 D71GQS/NGEL): 1 | LFA-1 Binding % (% of wild type) (ICAM-1 T20CS/ACT): 91 | LFA-1 Binding % (% of wild type) (ICAM-1 E34/A): 0 | LFA-1 Binding % (% of wild type) (ICAM-1 Q73/H): 12 | LFA-1 Binding % (% of wild type) (ICAM-1 R166PQ/EPA): 75 | LFA-1 Binding % (% of wild type) (ICAM-1 E90/Q): 122 | LFA-1 Binding % (% of wild type) (ICAM-1 D213GL/HGV): 90 | LFA-1 Binding % (% of wild type) (ICAM-1 R13G/EA): 2 | LFA-1 Binding % (% of wild type) (ICAM-1 N175TSA/QTLG): 26 | LFA-1 Binding % (% of wild type) (ICAM-1 N118/Q): 54 | LFA-1 Binding % (% of wild type) (ICAM-1 S5/T (human)): 104 | LFA-1 Binding % (% of wild type) (ICAM-1 K39KE/ERQ): 99 | LFA-1 Binding % (% of wild type) (ICAM-1 D60S/KL): 1 | LFA-1 Binding % (% of wild type) (ICAM-1 Q73/T): 40 | LFA-1 Binding % (% of wild type) (ICAM-1 M64/I): 111 | LFA-1 Binding % (% of wild type) (ICAM-1 N156/E): 60 | LFA-1 Binding % (% of wild type) (ICAM-1 R13/E): 1 | LFA-1 Binding % (% of wild type) (ICAM-1 Q1T/KA): 119 | LFA-1 Binding % (% of wild type) (ICAM-1 Y66/T): 135 | LFA-1 Binding % (% of wild type) (ICAM-1 K40/A): 124 | LFA-1 Binding % (% of wild type) (ICAM-1 N103/K): 12 | LFA-1 Binding % (% of wild type) (ICAM-1 K128/R): 109 | LFA-1 Binding % (% of wild type) (ICAM-1 R149RD/EEG): 81 | LFA-1 Binding % (% of wild type) (ICAM-1 K8/E): 84 | LFA-1 Binding % (% of wild type) (ICAM-1 S24/A): 80 | LFA-1 Binding % (% of wild type) (ICAM-1 L91/A): 87 | LFA-1 Binding % (% of wild type) (ICAM-1 R49KV/EKL): 123 | LFA-1 Binding % (% of wild type) (ICAM-1 D71/N): 79 | LFA-1 Binding % (% of wild type) (ICAM-1 A189T/SI): 91 | LFA-1 Binding % (% of wild type) (ICAM-1 Q27/L): 37 | LFA-1 Binding % (% of wild type) (ICAM-1 R13/K): 98 | LFA-1 Binding % (% of wild type) (ICAM-1 K77T/ES): 87 | LFA-1 Binding % (% of wild type) (ICAM-1 E127/R): 82 | LFA-1 Binding % (% of wild type) (ICAM-1 Y52/FA): 138 | LFA-1 Binding % (% of wild type) (ICAM-1 D60/Q): 18 | LFA-1 Binding % (% of wild type) (ICAM-1 E111GGA/KAGS): 103 | LFA-1 Binding % (% of wild type) (ICAM-1 S74/A): 70 | LFA-1 Binding % (% of wild type) (ICAM-1 N68/K): 101 | LFA-1 Binding % (% of wild type) (ICAM-1 N56V/HM): 121 | LFA-1 Binding % (% of wild type) (ICAM-1 S3/T): 149
